Key:
MS2 coat protein [1] = experiment: apparent KD of MS2 coat protein, switch ON state; designed switch direction (-1 OFF switch, 1 ON switch): -1; higher = weaker reporter binding; details: FMN input: 0 or 200 uM; Eterna round: R93 (includes R88 designs)
In short: (§1)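 Designed RNA switches were transcribed on-chip from Illumina sequencing clusters and titrated with SNAP-549-labelled MS2 coat protein in twofold steps from 0.7 or 1.5 nM up to 3 µM. Each step lasted 0.8–1.5 h at first and 10–20 min by the end, in 100 mM Tris-HCl pH 7.5, 80 mM KCl and 4 mM MgCl2, without or with constant ligand. Apparent KD is the median, for each design, of fits to normalised cluster binding curves.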

MS2 coat protein [2] = experiment: apparent KD of MS2 coat protein, switch OFF state (with FMN for OFF switches, without FMN for ON switches); designed switch direction (-1 OFF switch, 1 ON switch): -1; higher = weaker reporter binding; details: FMN input: 0 or 200 uM; Eterna round: R93 (includes R88 designs)
In short: as §1

MS2 coat protein [3] = experiment: apparent KD of MS2 coat protein; higher = weaker reporter binding; details: Eterna round: R107
In short: as §1

[4] = input ligand: theophylline 20 uM
[5] = input ligand: theophylline 2 mM
[6] = input ligand: tryptophan 2.4 mM

| Sequence | apparent KD of MS2 coat protein (MS2 coat protein [1]) [nM] | apparent KD of MS2 coat protein (MS2 coat protein [2]) [nM] | apparent KD of MS2 coat protein (MS2 coat protein [3]; input ligand: arginine 13.2 mM) [nM] | apparent KD of MS2 coat protein (MS2 coat protein [3]; [4]) [nM] | apparent KD of MS2 coat protein (MS2 coat protein [3]; [5]) [nM] | apparent KD of MS2 coat protein (MS2 coat protein [3]; [6]) [nM] | apparent KD of MS2 coat protein (MS2 coat protein [3]; input ligand: none) [nM] |
| --- | --- | --- | --- | --- | --- | --- | --- |
| AAGACUACAGGAUAUACAUGAGGAUCACCCAUGUAACUGACAAGUAGAUGACGGAGAAGUAGAAGGGUAGUCAA [Ruby 36] | 18.5 | 31.8 | – | – | – | – | – |
| AGUCUGAGAGGAUAUACAUGGAAAAAAAAAGUUAGAUCCCUACAUGAGGAUCACCCAUGUAGAAGGCUCUGACA [Ex2 Design 149: Sub-opt 13] | 45.8 | 15.2 | – | – | – | – | – |
| AAAAAACAUGAGGAUCACCCAUGUGAGGAUAUCAAAUAAAGGCACAUGAGAAGGCAUAUGAGAAGGCACAUGAA [Meechl MS2 Ex1 2] | 41.4 | – | – | – | – | – | – |
| GGUAACUCUACGGCCGCCACUGAACAUGAGGAUCACCCAUGUAAUGUUCAGAUUUUUUUUUUUUACAGGACCGGGUAGUGUUACC [Tryptophan B 4] | – | – | 107 | 276 | 275 | – | – |
| UGUCAUGGAAACAUGACAGGUUCUACCGGUCGAGGACCGGUACGGCCGCCACUCGAUUGGUGGCACAUGAGGAUCACCCAUGUUA [SS Tryp A #15] | – | – | 24.1 | 39.6 | 30.3 | – | – |
| GCACCAGGUACGGAUACCAGCUAUAGGCCCUAUGGGCGACAUGAGGAUCACCCAUGUAAUGGCCCUUGGCAGCUGUACCUGGUGC [SSThB NP+V+V2 #10 +-Same Structure] | – | – | 120 | 97.3 | – | 169 | – |
| GGAUAGGACACGGCCGCCACUAGCUAGGAUACUAGCAACAUUUGGGUACAUGAGGAUCACCCAUGUAGGACCGGGUGUCCUAUCG | – | – | 64.4 | 117 | 85.5 | 107 | 63.7 |
| ACCCAUAAUUGGGCGGGUGGAUUGAGUGAUACCAGUCGUAUACAUGACCCUUGGCAGCACCGACAUGAGGAUCACCCAUGUGCCA [Same State Theophylline A GF23] | – | – | 25.9 | 38.4 | – | 46 | – |
| AUUCCAUUGGUGCAGUUGUUAAAUGGCGAUACCAGCGUGGAAACACGCCCUUGGCAGCGCCAAAACAUGAGGAUCACCCAUGUUA [Havirov] | – | – | 32.1 | 70.5 | – | 59.1 | – |
| AUCGUACCUGAUGAUACCAGCAUGUGCUCGUAACAUGAGGAUCACCCAUGUGAUCAGUGAUGCCCUUGGCAGCAUGAUCGGUGCA [Same State - Theophylline B (Freestyle 18)] | – | – | 94 | 134 | – | 167 | – |
| AGAAUAUAAUAUAUCAAAGGUAUAACCGAAGGAGCGCCGAAUAAGGCAGGUAGGUCGCGGAAACAUGAGGAUCACCCAUGUCCAU [Arginine A Same State; Euphoria Solution 2] | – | – | 19 | 23.6 | 16.6 | 18.7 | 19.1 |
| AACAUGAGGAUCACCCAUGUCUGAACUGAAGGAGCGCUAAACAAGGCAGGUAGGUCGCGGAAUUUUGUGUGCAUAUGCAUAUGGG [9.J] | – | – | 22.8 | 35.3 | 29.6 | 24.7 | 24.4 |
| ACGCUGCAUAGGAAAACUAUGUAGCGAAAUCGAGGACCGGUACGGCCGCCACUCGUCCUCAACAUGAGGAUCACCCAUGUAAUAA [Mat - Exclusion - Trytophan A - D8] | – | – | 20.8 | 23.7 | 22.8 | – | – |
| GGCACAUAGUCGGCCGCCACUAGAAUAUAGUGGAAUAACAUGAGGAUCACCCAUGUAUUUGGGACUAGGACCGGGACUAUGUGCC [Bear] | – | – | 33.2 | 41.9 | 42.2 | 20.2 | 33.7 |
| AGUCCUCUGUACCCUGAUGCCCUCACUUUACGAGGACCGGUACGGCCGCCACUCGAAUCCCAACAUGAGGAUCACCCAUGUCGAC [theeternabot_exclusion_MS2_Trp_A_26] | – | – | 30 | 40 | 47 | – | – |
| GCACCAGGUACGGAUACCAGCUGCCAGCGUUACAUGAGGAUCACCCAUGUGAUCUGAUAUAGCCCUUGGCAGCUGUACCUGGUGC [SSThB NP+V+V2 #3 +-Same Structure] | – | – | 43.4 | 416 | – | 49.6 | – |
| CUGCCAUGCAGAGAUACCAGUGAGCUCAAAACAUGAGGAUCACCCAUGUAAAUUGCCGAUCACCCUUGGCAGCUCUGCAUGGCAG [}=%#^] | – | – | 13.7 | 10.3 | – | 9.55 | – |
| GAUGAUAUUGCAGAUACCAGACACAUGAGGAUCACCCAUGUGUCCUCGCCAGCGGCAUGUGUCCCUUGGCAGCUGCGAUAUCAUC [Colombia] | – | – | 11.1 | 17.7 | 41.2 | 12.1 | 11.1 |
| AUGGCGUUGGUGUAGCUGUGAAAUGGCGAUACCAGCGUGGAAACACGCCCUUGGCAGCGCCAAAACAUGAGGAUCACCCAUGUUA [Hradec] | – | – | 16.6 | 45.1 | – | 18.1 | – |

| Sequence | apparent KD of MS2 coat protein (MS2 coat protein [1]) [nM] | apparent KD of MS2 coat protein (MS2 coat protein [2]) [nM] | apparent KD of MS2 coat protein (MS2 coat protein [3]; input ligand: arginine 13.2 mM) [nM] | apparent KD of MS2 coat protein (MS2 coat protein [3]; [4]) [nM] | apparent KD of MS2 coat protein (MS2 coat protein [3]; [5]) [nM] | apparent KD of MS2 coat protein (MS2 coat protein [3]; [6]) [nM] | apparent KD of MS2 coat protein (MS2 coat protein [3]; input ligand: none) [nM] |
| --- | --- | --- | --- | --- | --- | --- | --- |
| UUCUUUAAGUCGGCCGCCACUGAAACAUGAGGAUCACCCAUGUAUAUUUGUGUAAAGGUGGAUUACAGGACCGGGACUAUAGUAA [JR_Nu23_ExcTryptoB_Sub024] | – | – | 12.1 | 13.6 | 11.7 | – | – |
| CUCCCGUGGUCGGCCGCCACUGGAGGCCUUGCGCGACAUGAGGAUCACCCAUGUGUGCCCGGCGUCAGGACCGGGAUCGCGUGAG [#1 Same State - Tryptophan B Attempt #12 (HarryS)] | – | – | 17.2 | 18.7 | 19.7 | 13.8 | 16.1 |
| UCGAAUGCGGCGGCCGCCACUCGCGGAUAACGAUAGCUUAACAUGAGGAUCACCCAUGUGUCAUGGAGGACCGGGCCCAUACGGU [kmkmullin] | – | – | 13.5 | 23.2 | 18.7 | 14.3 | 17 |
| UCGGAGAAGUCGGCCGCCACUGAACUCUUGUUCUACAUGAGGAUCACCCAUGUUCCUUUGUUUAACAGGACCGGGACUUAUACGA [JR_SSTryptoB_Sub009] | – | – | 108 | 283 | 346 | – | – |
| GGCACAUAGUCGGCCGCCACUAGUGGGAAAUGGGAGAACAUGAGGAUCACCCAUGUAUUAUAGCCUAGGACCGGGACUAUGUGCC [Mammoth] | – | – | 145 | 196 | 259 | – | – |
| CUCCGAGGCUAUACUAUACGCCUUUGUGAUACCAGAAUAAAUAUAUUCCCUUGGCAGCAUCACAUGAGGAUCACCCAUGUGCCAU [SSTheo A #12] | – | – | 15.7 | 27.7 | – | 12.4 | – |
| AUUCAUGGAAACAUGACAUACAUAUCCGGUCGAGGACCGGUACGGCCGCCACUCGUUUGGAGGCACAUGAGGAUCACCCAUGUUA [SS Tryp A #8] | – | – | 21.3 | 34.4 | 25.9 | – | – |
| UUCAGCUAGUCGGCCGCCACUACUUGAGGAUCACCCAAGUAAUCCUAACACUGCUUCGGCAGUGGUAGGACCGGGACUAGCUGAG | – | – | 8.78 | 12 | 11.5 | 15.1 | 10.9 |
| AGGCAGUAGGUGAUCCACUGCCAAGGUGAUACCAGCAUCGAAAGAUGCCCUUGGCAGCACCAACAUGAGGAUCACCCAUGUAAUA [(MT)''-(M)'-(T')-(Theo)-(Ms2)_Design1/22_9] | – | – | 36.9 | 186 | – | 99.2 | – |
| CCGGCCAAUUAGAAAUUAAUUGGCCGGAAACGAGGACCGGUACGGCCGCCACUCGUGGCGGGAGAAACAUGAGGAUCACCCAUGU | – | – | 23 | 54.7 | 53 | – | – |
| UGUAUGUGAUCUGAUACCAGUCCAACUGGUAAAACCUGAGGAUCACCCGGGUAAAAUUGGGACCCUUGGCAGCAGAUCGCAUACU | – | – | 201 | 285 | 26 | 683 | 475 |
| UGUUUGGUGCGCGAGUGUUGGAUGAUUGAUACCAGUGAAGAAGAGCGCCCUUGGCAGCGAAUCCUAACAUGAGGAUCACCCAUGU [5.V] | – | – | 39.3 | 57.7 | – | 51.4 | – |
| AAACAUGAGGAUCACCCAUGUGCUCCUGUCCGAGGACCGGUACGGCCGCCACUCGGUUCUCGGGAGGAUGGUCAAAGACUAUCCA [Omei Trp A SS B v10] | – | – | 60.7 | 44.7 | 57.8 | 48.8 | 50.6 |
| AAUGGCCGUACCGGAAGGGUGAUCCUCAAACGAGGACCGGUACGGCCGCCACUCGAUAACAUGAGGAUCACCCAUGUAAUACAUA [whbob_X-Trypto_V2.0] | – | – | 96.4 | 405 | 699 | – | – |
| AUAAUAAUCAUGGGUGAAGGUCCUCGCAAACGAGGACCGGUACGGCCGCCACUCGAACAUGAGGAUCACCCAUGUGUGAGGACCU [M' - T' - T - MS2 - T'' Design 2] | – | – | 24.9 | 59.7 | 74.1 | – | – |
| ACAUGAGGAUCACCCAUGUGAUGGCGCGAUACCAGCUGAUCCCGUGGCCCUUGGCAGCGUCCGGUGUGGUCCGGCGGGUGGGACG [khkmullin] | – | – | 91.4 | 31.7 | 31 | 24.2 | 20.8 |
| GCUGCCAUACGAAGGAGCGCUGGUGUAAUGAGGCGAACAUGAGGAUCACCCAUGUGGCAGAAGCAGGUAGGUCGCGUAUGGCAGC [EAB #15] | – | – | 12.9 | 20.6 | 14.9 | 18.3 | 14.2 |
| CCUAUGCAGUCGGCCGCCACUGUACAUGAGGAUCACCCAUGUUCUAAUAUAAUAAGAACUGAAAUCAGGACCGGGACUGUAUAGG [Ex Tryptophan B 2] | – | – | 1660 | 27.8 | 19.7 | 19.3 | 20.1 |

Source: the supplement of paper PMC9170038
